{
  "source": "paper PMC8989523",
  "about": "(Nucleic Acids Research, 2022)",
  "target": "the molecule itself",
  "assay": "dynamic light scattering",
  "data": [
    {"protein": "hPXR LBD (residues 140–434) with an N-terminal His tag and an SRC-1 fragment tethered at the C-terminus (domain or fragment) VQGLTEEQRMMIRELMDAQMKTFDTTFSHFKNFRLPGVLSSGCELPESLQAPSREEAAKWSQVRKDLCSLKVSLQLRGEDGSVWNYKPPADSGGKEIFSLLPHMADMSTYMFKGIISFAKVISYFRDLPIEDQISLLKGAAFELCQLRFNTVFNAETGTWECGRLSYCLEDTAGGFQQLLLEPMLKFHYMLKKLQLHEEEYVLMQAISLFSPDRPGVLQHRVVDQLQEQFAITLKSYIECNRPQPAHRFLFLKIMAMLTELRSINAQHTQRLLRIQDIHPFATPLMQELFGITGSGGSGGSSHSSLTERHKILHRLLQEGSPS", "values": [
      {"measurement": "stoichiometry N", "value": 2}
    ]}
  ]
}
